Data from paper PMC10397247.
Blank lines part the entries; values can stand above or below the binder they belong to.

How the values were obtained:
Assay in all cases: two-hybrid library CCNG1;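 note: natural log of median RNA to DNA barcode read ratio; higher means stronger binding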
[1] = target: T1, 4H1449-bA
T1 chain: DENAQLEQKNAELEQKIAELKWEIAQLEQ

[2] = target: T2, 4H1544-bA
T2 chain: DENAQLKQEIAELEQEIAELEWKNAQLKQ

[3] = target: T3, 4H1629-bA
T3 chain: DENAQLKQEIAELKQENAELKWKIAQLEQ

[4] = target: T4, 4H1710-bA
T4 chain: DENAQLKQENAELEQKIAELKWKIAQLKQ

[5] = target: T5, 4H1804-bA
T5 chain: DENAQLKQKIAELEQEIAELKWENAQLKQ

[6] = target: T6, 4H1899-bA
T6 chain: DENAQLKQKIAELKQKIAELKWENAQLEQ

[7] = target: T7, 4H1985-bA
T7 chain: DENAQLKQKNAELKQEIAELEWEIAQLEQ

[8] = target: T8, 4H3129-bA
T8 chain: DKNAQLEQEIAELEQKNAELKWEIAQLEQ

[9] = target: T9, 4H3172-bA
T9 chain: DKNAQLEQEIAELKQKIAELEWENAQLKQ

[10] = target: T10, 4H3414-bA
T10 chain: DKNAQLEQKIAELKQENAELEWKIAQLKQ

[11] = target: T11, 4H3613-bA
T11 chain: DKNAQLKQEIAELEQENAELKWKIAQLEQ

[12] = target: T12, 4H3628-bA
T12 chain: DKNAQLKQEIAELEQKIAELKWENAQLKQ

[13] = target: T13, 4H3631-bA
T13 chain: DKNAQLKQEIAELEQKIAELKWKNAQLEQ

[14] = target: T14, 4H3638-bA
T14 chain: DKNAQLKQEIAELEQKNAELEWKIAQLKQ

[15] = target: T15, 4H3817-bA
T15 chain: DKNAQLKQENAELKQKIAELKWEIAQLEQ

[16] = target: T16, 4H3858-bA
T16 chain: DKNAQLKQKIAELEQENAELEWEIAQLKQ

[17] = target: T17, 4H3974-bA
T17 chain: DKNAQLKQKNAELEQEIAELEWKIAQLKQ

[18] = target: T18, 4H570-bA
T18 chain: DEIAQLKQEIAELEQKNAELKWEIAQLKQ

[19] = target: T19, 4H584-bA
T19 chain: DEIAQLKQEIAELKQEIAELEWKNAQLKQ

[20] = target: T20, 4H619-bA
T20 chain: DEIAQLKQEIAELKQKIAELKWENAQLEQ

[21] = target: T21, 4H850-bA
T21 chain: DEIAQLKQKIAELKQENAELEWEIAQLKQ

[22] = target: T22, 4H906-bA
T22 chain: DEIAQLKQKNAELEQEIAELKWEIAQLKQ

[23] = target: T23, 4H2442-bN
T23 chain: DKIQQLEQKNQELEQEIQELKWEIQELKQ

[24] = target: T24, 4H2576-bN
T24 chain: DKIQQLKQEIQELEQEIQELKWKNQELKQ

[25] = target: T25, 4H2618-bN
T25 chain: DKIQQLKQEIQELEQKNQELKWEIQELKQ

[26] = target: T26, 4H2667-bN
T26 chain: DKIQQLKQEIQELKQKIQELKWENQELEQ

[27] = target: T27, 4H2692-bA
T27 chain: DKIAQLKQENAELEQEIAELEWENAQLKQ

[28] = target: T28, 4H2729-bN
T28 chain: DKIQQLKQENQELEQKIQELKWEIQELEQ

[29] = target: T29, 4H2931-bA
T29 chain: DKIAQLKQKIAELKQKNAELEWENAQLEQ

[30] = target: T30, 4H3112-bN
T30 chain: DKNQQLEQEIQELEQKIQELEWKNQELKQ

[31] = target: T31, 4H3185-bN
T31 chain: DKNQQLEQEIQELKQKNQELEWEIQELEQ

[32] = target: T32, 4H331-bN
T32 chain: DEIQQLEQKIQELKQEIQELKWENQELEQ

[33] = target: T33, 4H3354-bN
T33 chain: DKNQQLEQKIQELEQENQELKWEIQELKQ

[34] = target: T34, 4H338-bN
T34 chain: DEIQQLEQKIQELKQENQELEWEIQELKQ

[35] = target: T35, 4H3427-bN
T35 chain: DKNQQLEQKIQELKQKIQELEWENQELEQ

[36] = target: T36, 4H3782-bN
T36 chain: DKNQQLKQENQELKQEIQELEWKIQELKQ

[37] = target: T37, 4H3855-bN
T37 chain: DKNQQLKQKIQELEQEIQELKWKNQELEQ

[38] = target: T38, 4H4001-bN
T38 chain: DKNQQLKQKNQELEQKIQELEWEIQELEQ

[39] = target: T39, 4H454-bN
T39 chain: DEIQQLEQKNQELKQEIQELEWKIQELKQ

[40] = target: T40, 4H568-bN
T40 chain: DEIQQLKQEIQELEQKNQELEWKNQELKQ

[41] = target: T41, 4H607-bN
T41 chain: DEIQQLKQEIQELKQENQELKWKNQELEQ

[42] = target: T42, 4H687-bN
T42 chain: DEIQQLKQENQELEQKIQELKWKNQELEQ

[43] = target: T43, 4H717-bN
T43 chain: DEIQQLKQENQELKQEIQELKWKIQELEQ

[44] = target: T44, 4H72-bN
T44 chain: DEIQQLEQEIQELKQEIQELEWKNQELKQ

[45] = target: T45, 4H754-bN
T45 chain: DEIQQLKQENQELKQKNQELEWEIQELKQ

[46] = target: T46, 4H797-bN
T46 chain: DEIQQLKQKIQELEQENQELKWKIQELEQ

[47] = target: T47, 4H883-bN
T47 chain: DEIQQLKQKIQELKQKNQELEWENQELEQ

[48] = target: T48, 4H908-bN
T48 chain: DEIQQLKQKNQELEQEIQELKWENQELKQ

[49] = target: T49, 4H918-bN
T49 chain: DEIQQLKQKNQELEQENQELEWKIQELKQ

[50] = target: T50, 4H953-bN
T50 chain: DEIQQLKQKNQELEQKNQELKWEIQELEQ

[51] = target: T51, 4H967-bN
T51 chain: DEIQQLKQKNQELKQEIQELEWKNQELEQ

[52] = target: T52, 4H1845-bN
T52 chain: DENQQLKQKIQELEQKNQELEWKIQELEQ

[53] = target: T53, 4H2588-bN
T53 chain: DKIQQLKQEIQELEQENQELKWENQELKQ

[54] = target: T54, 4H2610-bN
T54 chain: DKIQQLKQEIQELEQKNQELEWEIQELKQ

[55] = target: T55, 4H2697-bN
T55 chain: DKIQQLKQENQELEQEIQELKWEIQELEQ

[56] = target: T56, 4H3189-bN
T56 chain: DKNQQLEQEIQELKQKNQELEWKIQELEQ

[57] = target: T57, 4H3606-bN
T57 chain: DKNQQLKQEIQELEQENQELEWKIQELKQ

[58] = target: T58, 4H370-bN
T58 chain: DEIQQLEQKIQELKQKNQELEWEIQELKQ

[59] = target: T59, 4H3843-bN
T59 chain: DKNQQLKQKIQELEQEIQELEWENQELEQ

[60] = target: T60, 4H462-bN
T60 chain: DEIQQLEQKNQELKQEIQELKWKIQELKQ

[61] = target: T61, 4H570-bN
T61 chain: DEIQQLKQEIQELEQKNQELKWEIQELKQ

[62] = target: T62, 4H619-bN
T62 chain: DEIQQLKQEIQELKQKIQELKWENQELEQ

interaction score [1]: -0.613 | interaction score [2]: -0.535 | interaction score [3]: -1.11 | interaction score [4]: 0.786 | interaction score [5]: -0.732 | interaction score [6]: -0.25 | interaction score [7]: 0.787 | interaction score [8]: -0.874 | interaction score [9]: -1.06 | interaction score [10]: -1.03 | interaction score [11]: -0.891 | interaction score [12]: -0.201 | interaction score [13]: 0.473 | interaction score [14]: -1.83 | interaction score [15]: -0.857 | interaction score [16]: -0.848 | interaction score [17]: 2.19 | interaction score [18]: -1.93 | interaction score [19]: -1.3 | interaction score [20]: -1.52 | interaction score [21]: -0.723 | interaction score [22]: -0.904
Binder: DENAQLEQKNAELEQKIAELKWEIAQLEQ [4H1449-bA]

interaction score [23]: -0.216 | interaction score [24]: -0.32 | interaction score [25]: 0.706 | interaction score [26]: 0.241 | interaction score [27]: -0.104 | interaction score [28]: 0.367 | interaction score [29]: 0.256 | interaction score [30]: -0.821 | interaction score [31]: -1.14 | interaction score [32]: 0.796 | interaction score [33]: -0.568 | interaction score [34]: -0.476 | interaction score [35]: -0.236 | interaction score [36]: 0.148 | interaction score [37]: -0.731 | interaction score [38]: 0.0198 | interaction score [39]: 0.883 | interaction score [40]: -0.89 | interaction score [41]: -1.3 | interaction score [42]: -0.717 | interaction score [43]: -1.28 | interaction score [44]: -0.588 | interaction score [45]: -0.65 | interaction score [46]: -0.491 | interaction score [47]: -0.738 | interaction score [48]: -0.788 | interaction score [49]: -0.127 | interaction score [50]: -0.933 | interaction score [51]: -0.892
Binder: DKIQQLEQKNQELEQEIQELKWEIQELKQ [4H2442-bN]

interaction score [52]: 0.0957 | interaction score [23]: -0.755 | interaction score [24]: -1.34 | interaction score [53]: -1.62 | interaction score [54]: -0.755 | interaction score [25]: -0.877 | interaction score [26]: 0.755 | interaction score [55]: -1.96 | interaction score [28]: -0.274 | interaction score [30]: -0.777 | interaction score [31]: -0.558 | interaction score [56]: -0.856 | interaction score [32]: -1.66 | interaction score [33]: -0.397 | interaction score [34]: -0.586 | interaction score [35]: -1.53 | interaction score [57]: -0.857 | interaction score [58]: -1.16 | interaction score [36]: -1.24 | interaction score [59]: -0.731 | interaction score [37]: -0.717 | interaction score [38]: -1 | interaction score [39]: -0.965 | interaction score [60]: -0.741 | interaction score [40]: -1.33 | interaction score [61]: -2.11 | interaction score [41]: -1.09 | interaction score [62]: -0.153 | interaction score [42]: -1.5 | interaction score [43]: -0.951 | interaction score [44]: -0.603 | interaction score [45]: -1.28 | interaction score [46]: -0.559 | interaction score [47]: -0.686 | interaction score [48]: -0.834 | interaction score [49]: -1.04 | interaction score [50]: -1.04 | interaction score [51]: -1.31
Binder: DENQQLKQKIQELEQKNQELEWKIQELEQ [4H1845-bN]

interaction score [3]: 0.605 | interaction score [4]: -0.992 | interaction score [5]: -1.39 | interaction score [7]: -0.329 | interaction score [26]: -1.22 | interaction score [8]: 0.102 | interaction score [9]: -0.887 | interaction score [10]: 0.702 | interaction score [13]: -0.216 | interaction score [14]: -0.477 | interaction score [15]: -0.529 | interaction score [17]: -0.124 | interaction score [18]: -0.594 | interaction score [19]: -1.4 | interaction score [20]: -0.0748 | interaction score [21]: -1.14 | interaction score [22]: -0.968
Binder: DENAQLKQEIAELKQENAELKWKIAQLEQ [4H1629-bA]
